In paper doi:10.1101/2022.08.14.503930 (bioRxiv, 2022):

Biological target: T1, GFP-TBK1 (UniProt Q9UHD2 1-729)
T1 construct: TBK1, insect codon optimized gene from GenScript; source: Sf9, purified (Glutathione Sepharose, TEV cleavage, Superdex 200)
Experiment: microscopy-based bead protein-protein interaction assay; GST-4xUb (10 uM) on Glutathione Sepharose beads with OPTN S177D S473D 500 nM, GFP-TBK1 500 nM and PI3Kc1-mCh 200 nM; 25 mM TRIS-Cl pH 7.5, 150 mM NaCl, 1 mM DTT; 30 min, confocal
Conditions: both partners purified

binding result: binds
B1: OPTN S2D (S177D, S473D) (natural protein, UniProt Q96CV9 1-577, looked up)
chain: MSHQPLSCLTEKEDSPSESTGNGPPHLAHPNLDTFTPEELLQQMKELLTENHQLKEAMKLNNQAMKGRFEELSAWTEKQKEERQFFEIQSKEAKERLMALSHENEKLKEELGKLKGKSERSSEDPTDDSRLPRAEAEQEKDQLRTQVVRLQAEKADLLGIVSELQLKLNSSGSSEDDFVEIRMAEGEAEGSVKEIKHSPGPTRTVSTGTALSKYRSRSADGAKNYFEHEELTVSQLLLCLREGNQKVERLEVALKEAKERVSDFEKKTSNRSEIETQTEGSTEKENDEEKGPETVGSEVEALNLQVTSLFKELQEAHTKLSEAELMKKRLQEKCQALERKNSAIPSELNEKQELVYTNKKLELQVESMLSEIKMEQAKTEDEKSKLTVLQMTHNKLLQEHNNALKTIEELTRKESEKVDRAVLKELSEKLELAEKALASKQLQMDEMKQTIAKQEEDLETMTILRAQMEVYCDDFHAERAAREKIHEEKEQLALQLAVLLKENDAFEDGGRQSLMEMQSRHGARTSDSDQQAYLVQRGAEDRDWRQQRNIPIHSCPKCGEVLPDIDTLQIHVMDCII
notes: optineurin (OPTN), TBK1 phospho-mimetic form; pGST2-GST-TEV-OPTN(S177D S473D), derived from vectors of Chang et al., 2021; also called OPTN S177D S473D; phosphomimetic OPTN S2D; source: E. coli Rosetta pLySS, purified (Glutathione Sepharose, TEV cleavage, Superdex 200); not shown: GST, N-terminal, cleaved
